Measured values reported in IntAct's records for PubMed 22309289.

B1: Protein X (Hepatitis B virus genotype D subtype ayw (isolate France/Tiollais/1979)), P03165 (parent)
chain: MAARLCCQLDPARDVLCLRPVGAESRGRPFSGSLGTLSSPSPSAVPTDHGAHLSLRGLPVCAFSSAGPCALRFTSARRMETTVNAHQILPKVLHKRTLGLSAMSTTDLEAYFKDCLFKDWEELGEEIRLKVFVLGGCRHKLVCAPAPCNFFTSA

Variants of: B1
Conditions: with akt1_human AKT1, P31749
Sequence of akt1_human AKT1, P31749 (P31749 whole entry): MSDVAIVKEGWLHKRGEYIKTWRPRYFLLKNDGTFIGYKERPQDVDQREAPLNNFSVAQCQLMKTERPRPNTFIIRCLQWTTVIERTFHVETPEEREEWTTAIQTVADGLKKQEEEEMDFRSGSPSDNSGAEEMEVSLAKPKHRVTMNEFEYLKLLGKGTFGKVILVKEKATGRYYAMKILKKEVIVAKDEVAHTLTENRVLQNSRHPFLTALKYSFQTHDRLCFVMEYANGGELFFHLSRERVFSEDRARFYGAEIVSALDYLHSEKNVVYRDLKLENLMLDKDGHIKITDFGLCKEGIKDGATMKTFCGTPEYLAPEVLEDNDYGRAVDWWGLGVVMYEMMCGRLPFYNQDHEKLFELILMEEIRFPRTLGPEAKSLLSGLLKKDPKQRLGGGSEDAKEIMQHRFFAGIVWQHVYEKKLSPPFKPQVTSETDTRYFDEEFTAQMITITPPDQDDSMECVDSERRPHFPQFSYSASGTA
S31A was tested, and the “effect of a mutation on the interaction” value was “disrupting interaction”.
